Test results reported in US20230340128A1 (Xencor, published 2023).
Where a chain is given by its changes, count along the chain named.

How the values were obtained:
human mesothelin (MSLN) [1] = biological target: T1, human mesothelin (MSLN) (human, UniProt Q13421 296-580, limits assumed); assay: BLI (Octet), bsAb in 1+1 Fab-scFv-Fc format
T1 construct: Antigen of the Octet KD values

human mesothelin (MSLN) [2] = biological target: T1, human mesothelin (MSLN); assay: KD quoted in the FIG. 25 legend; Octet (BLI) per FIGS. 20-21
human mesothelin (MSLN) [3] = biological target: T1, human mesothelin (MSLN); assay: BLI (Octet), multiple concentrations, bsAb in 1+1 Fab-scFv-Fc format; lower table, column 'human MSLN (M)'
human CD28 [4] = biological target: T2, human CD28 (human, UniProt P10747 19-152, limits assumed); assay: method not stated; Monovalent CD28 KD, table headed 1A7[CD28] H1_L1.71 (aka 180 nM)
T2 construct: also called Cluster of Differentiation 28; Tp44

human CD28 [5] = biological target: T2, human CD28; assay: method not stated; Monovalent CD28 KD, table headed 1A7[CD28] H1.14_L1.71 (aka 37 nM)
human CD28 [6] = biological target: T2, human CD28; assay: label in the legend box: nominal affinity of the CD28 binding domain (paragraph 422 calls such label values KD); method not stated on the sheet
human mesothelin (MSLN) [7] = biological target: T1, human mesothelin (MSLN); assay: label in the legend box: nominal affinity of the MSLN binding domain (paragraph 422 calls such label values KD); method not stated on the sheet

B1: XENP32563 (bispecific antibody)
chain 1: QVQLVQSGAEVKKPGASVKVSCKASGYTFTSYWMHWVRQAPGQGLEWMGMIHPNSDNTIYYEKFQGRVTMTVDKSISTAYMELSRLRSDDTAVYYCAIIITPVVPKFDYWGQGTLVTVSSASTKGPSVFPLAPSSKSTSGGTAALGCLVKDYFPEPVTVSWNSGALTSGVHTFPAVLQSSGLYSLSSVVTVPSSSLGTQTYICNVNHKPSDTKVDKKVEPKSCDKTHTCPPCPAPPVAGPSVFLFPPKPKDTLMISRTPEVTCVVVDVKHEDPEVKFNWYVDGVEVHNAKTKPREEEYNSTYRVVSVLTVLHQDWLNGKEYKCKVSNKALPAPIEKTISKAKGQPREPQVYTLPPSREEMTKNQVSLTCDVSGFYPSDIAVEWESDGQPENNYKTTPPVLDSDGSFFLYSKLTVDKSRWEQGDVFSCSVMHEALHNHYTQKSLSLSPGK
chain 2: not shown
chain 3: DIVMTQSPDSLAVSLGERATINCKASHDVGTYVAWYQQKPGQSPKLLIYWASTRHTGVPDRFTGSGSGTDFTLTISSLQAEDVAVYFCQQYSSYPLTFGAGTKLEIKRTVAAPSVFIFPPSDEQLKSGTASVVCLLNNFYPREAKVQWKVDNALQSGNSQESVTEQDSKDSTYSLSSTLTLSKADYEKHKVYACEVTHQGLSSPVTKSFNRGEC
Kd (human mesothelin (MSLN) [1]): 12.8 nM
Response (human mesothelin (MSLN) [1]): 0.898
koff (human mesothelin (MSLN) [1]): 0.00672 s⁻¹
kon (human mesothelin (MSLN) [1]): 527000 M⁻¹ s⁻¹
Kd (human mesothelin (MSLN) [2]): ~12.8 nM

B2: XENP32567 (bispecific antibody)
chain 1: B1 chain 1
chain 2: not shown
chain 3: B1 chain 3 with Y32S, S92Y
Kd (human mesothelin (MSLN) [1]): 15.3 nM
Response (human mesothelin (MSLN) [1]): 0.953
koff (human mesothelin (MSLN) [1]): 0.00887 s⁻¹
kon (human mesothelin (MSLN) [1]): 578000 M⁻¹ s⁻¹
Kd (human mesothelin (MSLN) [3]): 3.9 nM

B3: XENP32552 (bispecific antibody)
chain 1: B1 chain 1 with M50W
chain 2: not shown
chain 3: B1 chain 3 with Y32S
Kd (human mesothelin (MSLN) [1]): 30 nM
Response (human mesothelin (MSLN) [1]): 0.915
koff (human mesothelin (MSLN) [1]): 0.0147 s⁻¹
kon (human mesothelin (MSLN) [1]): 491000 M⁻¹ s⁻¹
Kd (human mesothelin (MSLN) [3]): 9.2 nM

B4: XENP39554 (bispecific antibody)
heavy: B1 chain 1 with M430L, N436S
scFv-Fc: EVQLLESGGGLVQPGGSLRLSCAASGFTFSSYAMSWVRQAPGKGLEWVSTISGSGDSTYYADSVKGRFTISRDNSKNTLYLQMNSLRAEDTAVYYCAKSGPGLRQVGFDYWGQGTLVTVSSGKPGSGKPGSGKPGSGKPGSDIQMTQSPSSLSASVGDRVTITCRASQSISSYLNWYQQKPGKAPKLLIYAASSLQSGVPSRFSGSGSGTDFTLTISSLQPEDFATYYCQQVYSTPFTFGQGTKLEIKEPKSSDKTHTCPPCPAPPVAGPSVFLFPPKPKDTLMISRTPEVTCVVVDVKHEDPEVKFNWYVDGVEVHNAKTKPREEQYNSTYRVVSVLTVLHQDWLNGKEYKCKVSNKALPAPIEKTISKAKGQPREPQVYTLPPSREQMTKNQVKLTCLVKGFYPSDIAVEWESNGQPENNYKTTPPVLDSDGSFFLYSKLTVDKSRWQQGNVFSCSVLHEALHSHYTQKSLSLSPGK
light: B1 chain 3 with Y32S
notes: also called H1_L1.71
Kd (human CD28 [4]): 200 nM

B5: XENP44475 (bispecific antibody)
chain 1: QVQLVQSGAEVKKPGASVKVSCKASGYTFTSYWMHWVRQAPGQGLEWMGMIHPNSDNTIYYEKFQGRVTMTVDKSISTAYMELSRLRSDDTAVYYCAIIITPVVPKFDYWGQGTLVTVSSASTKGPSVFPLAPSSKSTSGGTAALGCLVKDYFPEPVTVSWNSGALTSGVHTFPAVLQSSGLYSLSSVVTVPSSSLGTQTYICNVNHKPSDTKVDKKVEPKSCGGGGSGGGGSQVQLVQSGAEVKKPGASVKVSCKASGYTFTSYWMHWVRQAPGQGLEWMGMIHPNSDNTIYYEKFQGRVTMTVDKSISTAYMELSRLRSDDTAVYYCAIIITPVVPKFDYWGQGTLVTVSSASTKGPSVFPLAPSSKSTSGGTAALGCLVKDYFPEPVTVSWNSGALTSGVHTFPAVLQSSGLYSLSSVVTVPSSSLGTQTYICNVNHKPSDTKVDKKVEPKSCDKTHTCPPCPAPPVAGPSVFLFPPKPKDTLMISRTPEVTCVVVDVKHEDPEVKFNWYVDGVEVHNAKTKPREEEYNSTYRVVSVLTVLHQDWLNGKEYKCKVSNKALPAPIEKTISKAKGQPREPQVYTLPPSREEMTKNQVSLTCDVSGFYPSDIAVEWESDGQPENNYKTTPPVLDSDGSFFLYSKLTVDKSRWEQGDVFSCSVLHEALHSHYTQKSLSLSPGK
chain 2: not shown
chain 3: B1 chain 3 with Y32S
notes: also called 2+1 Fab2-Fc x scFv-Fc MSLN x CD28 bsAb
Kd (human CD28 [5]): 740 nM

B6: XENP44469 (bispecific antibody)
chain 1: B1 chain 1 with M430L, N436S
chain 2: not shown
chain 3: B1 chain 3 with Y32S
notes: also called 2+1 Fab2-scFv-Fc MSLN x CD28 bsAb
Kd (human CD28 [5]): 580 nM

B7: XENP39533 (bispecific antibody)
heavy 1: B1 chain 1 with M430L, N436S
heavy 2: not shown
light 1: B1 chain 3 with Y32S
light 2: B1 chain 3 with Y32S
notes: also called H1.14_L1.71
Kd (human CD28 [5]): 660 nM

B8: XENP44471 (bispecific antibody)
heavy 1: B1 chain 1 with M50W, M430L, N436S
heavy 2: not shown
light 1: B1 chain 3 with Y32S
light 2: B1 chain 3 with Y32S
notes: also called XENP44471 MSLN (9 nM) x CD28 (180 nM) 2+1 Fab2-scFv-Fc
Kd (human CD28 [6]): 180 nM
Kd (human mesothelin (MSLN) [7]): 9 nM

B9: XENP44473 (bispecific antibody)
heavy 1: B1 chain 1 with M50W, M430L, N436S
heavy 2: not shown
light 1: B1 chain 3 with T31Q, Y32S
light 2: B1 chain 3 with T31Q, Y32S
notes: also called XENP44473 MSLN (90 nM) x CD28 (180 nM) 2+1 Fab2-scFv-Fc
Kd (human CD28 [6]): 180 nM
Kd (human mesothelin (MSLN) [7]): 90 nM

B10: XENP44477 (bispecific antibody)
heavy: B5 chain 1 with M50W, M283W
scFv-Fc: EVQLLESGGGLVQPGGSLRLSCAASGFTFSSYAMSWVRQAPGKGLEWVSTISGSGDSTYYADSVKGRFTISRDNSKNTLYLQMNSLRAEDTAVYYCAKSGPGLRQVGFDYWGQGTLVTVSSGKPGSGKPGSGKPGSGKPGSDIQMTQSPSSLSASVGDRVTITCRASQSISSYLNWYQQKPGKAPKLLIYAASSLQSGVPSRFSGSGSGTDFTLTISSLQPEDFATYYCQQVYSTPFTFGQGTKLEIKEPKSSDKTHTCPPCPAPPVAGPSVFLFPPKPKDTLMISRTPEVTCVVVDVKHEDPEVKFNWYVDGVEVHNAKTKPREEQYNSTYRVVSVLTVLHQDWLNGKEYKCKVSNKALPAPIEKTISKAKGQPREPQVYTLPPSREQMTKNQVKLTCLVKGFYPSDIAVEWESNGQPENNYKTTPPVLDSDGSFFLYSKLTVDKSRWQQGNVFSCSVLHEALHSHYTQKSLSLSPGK
light 1: B1 chain 3 with Y32S
light 2: B1 chain 3 with Y32S
notes: also called XENP44477 MSLN (9 nM) x CD28 (180 nM) 2+1 Fab2-Fc x scFv-Fc
Kd (human CD28 [6]): 180 nM
Kd (human mesothelin (MSLN) [7]): 9 nM

B11: XENP44479 (bispecific antibody)
heavy: B5 chain 1 with M50W, M283W
scFv-Fc: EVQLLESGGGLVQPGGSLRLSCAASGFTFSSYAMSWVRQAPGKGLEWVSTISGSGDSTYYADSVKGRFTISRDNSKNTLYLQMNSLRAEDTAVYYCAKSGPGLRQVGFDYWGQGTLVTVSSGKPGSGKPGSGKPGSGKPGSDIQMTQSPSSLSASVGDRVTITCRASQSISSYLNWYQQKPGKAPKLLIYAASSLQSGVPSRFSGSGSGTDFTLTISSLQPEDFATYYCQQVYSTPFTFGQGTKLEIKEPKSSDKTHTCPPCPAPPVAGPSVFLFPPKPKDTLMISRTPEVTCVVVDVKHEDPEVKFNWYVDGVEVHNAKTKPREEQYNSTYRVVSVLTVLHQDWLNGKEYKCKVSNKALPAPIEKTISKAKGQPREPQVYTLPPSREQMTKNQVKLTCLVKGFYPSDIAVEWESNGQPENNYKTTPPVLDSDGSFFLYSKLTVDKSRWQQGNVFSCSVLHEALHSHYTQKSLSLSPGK
light 1: B1 chain 3 with T31Q, Y32S
light 2: B1 chain 3 with T31Q, Y32S
notes: also called XENP44479 MSLN (90 nM) x CD28 (180 nM) 2+1 Fab2-Fc x scFv-Fc
Kd (human CD28 [6]): 180 nM
Kd (human mesothelin (MSLN) [7]): 90 nM

B12: XENP32948 (bispecific antibody)
chain 1: B1 chain 1 with E62Q
chain 2: QVQLVQSGAEVKKPGASVKVSCKASGYTFTSYWMHWVRQAPGQGLEWMGMIHPNSDNTIYYQKFQGRVTMTVDKSISTAYMELSRLRSDDTAVYYCAIIITPVVPKFDYWGQGTLVTVSSASTKGPSVFPLAPSSKSTSGGTAALGCLVKDYFPEPVTVSWNSGALTSGVHTFPAVLQSSGLYSLSSVVTVPSSSLGTQTYICNVNHKPSNTKVDKKVEPKSCGGGGSGGGGSQAVVTQEPSLTVSPGGTVTLTCGSSTGAVTTSNYANWVQQKPGKSPRGLIGGTNKRAPGVPARFSGSLLGGKAALTISGAQPEDEADYYCALWYSNHWVFGGGTKLTVLGKPGSGKPGSGKPGSGKPGSEVQLVESGGGLVQPGGSLRLSCAASGFTFSTYAMNWVRQAPGKGLEWVGRIRSKANNYATYYADSVKGRFTISRDDSKNTLYLQMNSLRAEDTAVYYCVRHGNFGDSYVSWFAYWGQGTLVTVSSGGGGSGGGGSKTHTCPPCPAPPVAGPSVFLFPPKPKDTLMISRTPEVTCVVVDVKHEDPEVKFNWYVDGVEVHNAKTKPREEQYNSTYRVVSVLTVLHQDWLNGKEYKCKVSNKALPAPIEKTISKAKGQPREPQVYTLPPSREQMTKNQVKLTCLVKGFYPSDIAVEWESNGQPENNYKTTPPVLDSDGSFFLYSKLTVDKSRWQQGNVFSCSVMHEALHNHYTQKSLSLSPGK
chain 3: B1 chain 3 with Y32S, S92Y
Kd (human mesothelin (MSLN) [2]): 10.2 nM
